The values that follow are results of earlier work, collected in paper PMC5828769.

Data set [1] addresses angiogenin (Homo sapiens) (UniProt P03950).
Data set [2] concerns the target actin (AngBP) (Bos taurus) (UniProt P60712).

UniProt P03950, sequence (P03950 25-147): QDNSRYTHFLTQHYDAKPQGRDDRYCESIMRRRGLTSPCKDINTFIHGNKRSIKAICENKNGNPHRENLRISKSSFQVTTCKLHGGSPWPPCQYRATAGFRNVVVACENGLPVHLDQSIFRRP

Turning to “PRI (ribonuclease inhibitor) (from UniProt P13489)”, in data set [1], the Ki (in general, the equilibrium dissociation constant of an inhibitor or competing ligand from its target) was less than 0.001 pM.

In the case of angiogenin (from UniProt P10152), the dissociation constant (Kd) (usually the equilibrium constant for the complex coming apart) in data set [2] was 500 pM.
